Test results reported in publication PMC10666288, “Unveiling the Catalytic Mechanism of a Processive Metalloaminopeptidase” (Biochemistry, 2023).

Substrate: Cc1cc(=O)oc2cc(NC(=O)[C@H](N)CC(C)C)ccc12
Experiment: Steady-state activity assay with Leu-AMC (fluorescence)
Type: biochemical, Pseudomonas aeruginosa
Settings: other: Leu-AMC varied, 3 mM MnCl2, pH 8.0, 25.0 °C
Procedure: A BMG Labtech POLARstar Omega plate reader was used for activity assays and kinetic studies involving amino acids conjugated to para-nitroaniline (pNA) (Sigma) or peptides as substrates. Assays were carried out at 25 °C in clear half-area 96-well plates (Greiner Bio-One). The pNA product formed upon PaPepA-mediated bond cleavage strongly absorbs at 405 nm; therefore, initial rates were measured by monitoring the increase in absorbance at 405 nm over time. For kinetic assays investigating Leu-AMC as a substrate, a SpectraMax M2E was used. Reactions were carried out using black half-area 96-well plates with clear bottoms (Greiner Bio-One). Product formation was assessed by monitoring changes in fluorescence, with the excitation wavelength set at 341 nm and emission at 441 nm. The cutoff was 420 nm. PMT gain was set to medium, with six flashes per read. PaPepA was added at a final concentration of 100 nM to start reactions. Calibration curves of pNA concentration vs absorbance and AMC vs fluorescence were constructed, and initial rate values were divided by the slope of these calibration curves to reveal the rate of product formation over time (Table S2).
For all assays excluding pH dependence curves, buffer conditions were as follows: 100 mM HEPES, 50 mM KCl, and pH 8.0. For assays carried out under pseudo-first-order conditions, one reaction component was fixed and in excess, while the other was varied. If [metal] was varied, [Leu-pNA] was fixed at 2 mM or [Leu-AMC] was fixed at 170 μM. For assays involving variation of aa-pNA or aa-AMC, MnCl2 was added to a final concentration of 3 mM. PaPepA was added at a final concentration of 100 nM in studies containing MnCl2, and to a final concentration of 1 μM in studies containing MgCl2 as the metal cofactor. Table 1 summarizes steady-state parameters described in Scheme 1 and obtained with different substrates.

B1: PaPepA (Pseudomonas aeruginosa UCBPP-PA14) (protein)
chain: MEFLVKSVRPETLKTATLVLAVGEGRKLGASAKAVDDATGGAISAVLKRGDLAGKVGQTLLLQSLPNLKAERVLLVGAGKERELGDRQYRKLASAVLSTLKGLAGADAALALGDLAVKGRGAHAKARLLVETLADGLYVFDRYKSQKAEPLKLKKLTLLADKADSAAVEQGSKEAQAIANGMALTRDLGNLPPNVCHPTFLGEQAKGLAKEFKSLKVEVLDEKKLRELGMGSFLAVAQGSDQPPRLIILQYNGAKKDQAPHVLVGKGITFDTGGISLKPGLGMDEMKFDMCGAASVFGTFRAVLELQLPINLVGLLACAENMPSGGATRPGDIVTTMSGQTVEILNTDAEGRLVLCDALTYAERFKPQSVIDIATLTGACIVALGSNTSGLMGNNEALVRQLLKAGEFADDRAWQLPLFDEYQEQLDSPFADIANIGGPKAGTITAGCFLSRFAKKYHWAHLDIAGTAWISGGKDKGATGRPVPLLTQYLLERAK
notes: GG stays after cleavage) (N); made in house; host or cells: E. coli BL21(DE3)
**Q.** B1 was tested. Which Km did it give?
**A.** 16 ± 1 µM

**Q.** What about the kcat of the same protein?
**A.** 0.56 ± 0.01 s⁻¹

**Q.** And the kcat/Km?
**A.** 35400 ± 3100 M⁻¹ s⁻¹
